Source: the supplement of paper PMC9170038

System: MS2 coat protein
Assay: apparent KD of MS2 coat protein; designed switch direction (-1 OFF switch, 1 ON switch): -1; higher = weaker reporter binding
Method in brief: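 Normalised cluster fluorescence was curve-fitted, and each design's median over clusters is its apparent KD. Before this, SNAP-549-labelled MS2 coat protein was titrated from 0.7 or 1.5 nM, doubling to 3 µM, over RNA switches transcribed on Illumina chips by stalled E. coli RNA polymerase. Titrations had no input, 200 uM small-molecule ligand, or an oligonucleotide input, and steps lasted 0.8–1.5 h (lowest) to 10–20 min (highest).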

[1] = Eterna round: R95, input ligand: FMN 200 uM
[2] = Eterna round: R95, input ligand: microRNA oligo, concentration not stated
[3] = Eterna round: R95, input ligand: none
[4] = input ligand: microRNA oligo, concentration not stated

| Sequence | apparent KD of MS2 coat protein (input ligand: FMN 200 uM) [nM] | apparent KD of MS2 coat protein (input ligand: none) [nM] | apparent KD of MS2 coat protein [1] [nM] | apparent KD of MS2 coat protein [2] [nM] | apparent KD of MS2 coat protein [3] [nM] | apparent KD of MS2 coat protein [4] [nM] |
| --- | --- | --- | --- | --- | --- | --- |
| UUGGACGGAGGAUAUGCAGCGAGUAAUACGAUCGAUCCAAAACAUGAGGAUCACCCAUGUAGAAGGCUGACCAA [Eternabot (L1) Solution 11] (Eterna round: R97, puzzle: Exclusion 2) | 174 | 71.2 |  |  |  |  |
| AAACCUGCCCAUGACCGCAAGCUUUUUGCUUGUCUUACCACAUGAGGAUCACCCAUGUGACAUGGGCUCCUUAUAAA [Usteorrila] (puzzle: Sensor v3, turn-off variant 2) |  |  | 12.7 | 9.84 | 11.5 |  |
| AACGGUGGGUAGGAUAUCCGGUUCUAGUUGCCAGGAGAAGGGCCCACAUGAGGAUCACCCAUGUGGGUGGGCUC [Maesri] (puzzle: Exclusion 6) |  |  |  | 43.6 |  |  |
| GCAAGCUUUUGCUCGUCUUACAUGAGGAUCACCCAUGUCGGGUGCUUGCUUGCGUCCGGCGUCUGGGCCGUGGCGGU [-31.9, -55.1 kcal, A 10%] (Eterna round: R97, puzzle: Sensor, turn-off variant 1) | 22.2 | 21.6 |  |  |  |  |
| UAGUGAGCGUGAGGAAUAUACAUGAGGAUCACCCAUGUUUGCUACUAUCUUGCUCGUCUUAUAACAACAAUUAACUG [mod-hagla-honey#50] (Eterna round: R97, puzzle: Sensor, turn-off variant 1) | 14.8 | 16.9 |  |  |  |  |
| UACCUACAUGAGGAUCACCCAUGUCAGGAUAUCCGUGUGAACGAGUCGUUACACAGGCGGAGAAGGGACAUCGG [Eternabot (L1) Solution 65] (Eterna round: R97, puzzle: Exclusion 1) | 94.5 | 54.2 |  |  |  |  |
| AGUCUGCGAGGAUAUACAUGAGGAUCACCCAUGUGCGAGAAACUAGUGAGGUCGAUUGGUAGAAGGCGCGGACA [Mat - Exclusion 3 - Mod of JL D87] (puzzle: Exclusion 3) |  |  | 34.7 | 200 | 356 |  |
| GGUAGUAUGAGUAGUCCUCAUUGAAGAGAUUGGUAAGAUACAUGAGGAUCACCCAUGUUUGAACAAGCUUUUGCUCA [JR_Sv3TOV2_Sub006] (puzzle: Sensor v3, turn-off variant 2) |  |  | 141 | 53 | 298 |  |
| GUCAGUAUAUAACAAGCAUACAUGAGGAUCACCCAUGUGCGCGGAAAGCGUUUCCGCGCAUAUCGUUCCUAGCUCGG [Eternabot (Original) Solution 14] (Eterna round: R97, puzzle: Sensor, turn-off variant 1) | 419 | 505 |  |  |  |  |
| UUAAUUAGCAGACUAAUACCUCACAUGAGGAUCACCCAUGUGCAGGAUAUCAGCUCGUGUAGAGCUGAGAAGGGCACUGUCUGC [ExNG3/12-A3] (Eterna round: R96, puzzle: Exclusion NG 3) | 17 | 10.8 |  |  |  | 10.2 |
| CAGGAUAGAGGAUAUGCAUAGAUACAGAUUCAUGUAAUCCUACAUGAGGAUCACCCAUGUAGAAGGCUAUCCUG [Fiskers Ex 2 - 17] (puzzle: Exclusion 2) |  |  |  | 14.7 |  |  |
| GCUUUUCUUUUCCUUUCUUACAUGAGGAUCACCCAUGUUUCUUGUCGCGCUCGCGUUGCUCGUCUGUCUGUCUGUUG [salish99_TOv1_r3_079] (puzzle: Sensor v3, turn-off variant 1) |  |  | 43.1 | 28.9 | 54.7 |  |
| CCCAGUUAGGAAGGAUAUUGUACAUGAGGAUCACCCAUGUAAUAAAUGAGGAUCACGGAUGUAUACAAGAAGGUCCGGAUAGGC [Ostracism 9 - Jieux - Exclusion NG 2] (Eterna round: R96, puzzle: Exclusion NG 2) |  |  |  |  |  | 59.3 |
| AGUAACAGAGGAUAUACUAUUUUAUGUAUUUAUUAUUUUAAACAUGAGGAUCACCCAUGUAGAAGGCUGAAUGA [JMF 97] (puzzle: Exclusion 2) |  |  |  | 21.1 |  |  |
| GAUCACUGAGGAUAUACACAGAUACAAAGUAUCUGACCGUGACAUGAGGAUCACCCAUGUAGAAGGCAGAGGUC [Omei Ex2 B1] (Eterna round: R97, puzzle: Exclusion 2) | 384 | 47.2 |  |  |  |  |
| GUCAUCAAACAUGGGAUAAACAUGAGGAUCACCCAUGUAUACAAGUUUUUUGCUCGUCUUAUAAUAAGUUUGAUGAC [Antenna 6 - Jieux - Sensor, turn-off variant 1] (Eterna round: R97, puzzle: Sensor, turn-off variant 1) | 16.4 | 15.3 |  |  |  |  |
| AAUGAUUGACGAGGAUAUUGUGUUAGAUCACGACGAGAAGGCGUCUGUCACAUGAGGAUCACCCAUGUGAGCCUGGUGGAUGGG [Ex NG1 #79] (Eterna round: R96, puzzle: Exclusion NG 1) | 41.7 | 26.7 |  |  |  | 22.3 |
| CGGAUGUAAGGAUAUCGUGCAAGUUUCAAAAGAGGCUUGUGCGAGAAGGUACAUGAGGAUCACCCAUGUAGGUU [Omei Ex4 B6] (Eterna round: R97, puzzle: Exclusion 4) | 157 | 75.8 |  |  |  |  |
